Assay results: the domain aggregation screens of Martell et al. (2025)

assay: soluble fraction after stress (log2 fold change); higher = more stays soluble; pooled small domains, quantitative proteomics; conditions: stress: 50 degC
Method in brief: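 Pooled custom libraries of small protein domains were each held under stress at 50°C. The read-out, high-throughput quantitative proteomics, tracked how much of each protein stayed soluble. This is reported as a base-two log fold change used to indicate aggregation propensity. Higher values mean more protein remains in solution.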

Point of comparison: “HMEFEYTVVVPETRGKTIGEAGRILLDLELKYTSESMNIREDSKVIDQFPSPGTEVSKGSIIDLYLDE”, “soluble fraction (log2)” value 0.0563. Against it:
- HMEQQVDYTQFIQDVRQGQIREVDVDRNGVINGIKRSGENFVTVIPGGYDRDLINDLVKQGVNATGEL — within 0.2 log units, 0.107
- HMKKSTLLLFFLKELLEGKKISLKSFALENDINIRTAQRYIEDIEEAFPDNLLKENDFYSFV — lower, -2.25
- HMYEDSNQSLNFFAIKFIKEKNIKISQETTNLIVERARGDRGNLINELQKLEALSLTRKKITQEDVFNLTN — lower, -0.774
- HMDYYASVDQVWRELGLAGPARRALIDDGLFKLSDLRKTSLAAVKELHGMGPNAIRILTTEMKKADLSFR — lower, -2.25
- HMYDEKTLRKAVLDYVRDNDDGRLDLMKIDSYLTSRYGNIDYAALGYNRLSMFISSFPELRRNSNYVTLRK — lower, -0.164
- HMRGDQLREHLLWTAKDVFLELGFERASMDAVAARAETSKRSLYAHFESKEKLFLAVIDLVRG — lower, -3.67
- HMQKLNIEEQIVYDIIFKNKELSANEIQIKSGIKTSILNALLINLEIKQYIKLKFGNFYEIK — within 0.2 log units, 0.209
- HMPPHGHIVELLPEQDFGRIETGDGRLVYFHRNSVLDGDFAQLAVGDAVRFAEEMGERGPQASSVHVE — within 0.2 log units, 0.0967
- HMKALRNQDVVVGKPLAMAVYDQHGVLLLGRGHVVISESQRQQLLERGFSIDAEQLGRLRAAIEATQRV — lower, -0.378
- HMKLTEEEFNAKRKAYLDRLETLNDEAVIKATFMEAASGLGLQKGSAEFGDLRKYFVDRIVDIK — higher, 0.385
- HMTYYEGYYRKNQKGFGFVIVDGRDEDIYIDAKNMNGALNNDLVVVEELKGQNGKKTEGRVVKVLKKE — lower, -0.185
- HMKTGTVQDFIAKYGMSSKSPSSWFNSLTQIQKAEAKALKAQSGLTWNEWYEKNIYNGDGSNL — within 0.2 log units, 0.0263
- HMNIIATHTVPAIEQKIRLQEYAISIFPQINSRSALKKAIAKKLVLLDGERASTADWIQPGQKIELLEDK — lower, -0.337
- HMRITRREQQVLHLLAMGMTTREIAGHINLTERTVRNRISNLRDKLGAQTASQLLAKAVAQGLIEP — lower, -2.02
- HMQSSTAISFNQFQKSWLSNNIKSFQLGEDKMTVRGSLKNGTQYETIVPSERLFQFIGQHPKDGQVQEMY — within 0.2 log units, 0.042
- HMNAQLTTIPDLDGMNMRAATAMLSSLGLEVKRIGSGTVFAQFPKAGAAMRPGSMVTIRGKAKSL — lower, -0.355
- HMQEAGKWLKKLRTERKITLEQLSKKTGLSVGFLSQFERGLTSIAIDTLEKIAAVFNVTIDYFISP — within 0.2 log units, 0.0423
- HMDLDYSGIMNVLNQKYHITFYNNKKIQNLMPKLMIIMGYNSIINEIGHSKSLKALINSFEEKLKSYILT — lower, -3.02
- HMERFMEFVITDTQQGQRLDVVLTETTEHLGSRSHMQRSIRAGLVSIDGITTTRASTKVSSGQIIRVEPT — lower, -1.49
- HMQEQSSYVGQFGTAATTLRPSGTVELEDGTRIDVVTVGEFIEKGEPVQVVRKDGTWLVVEKRRSK — higher, 0.286
- HMGTSRVQSILFDQSQWTINRAVHWLNTHHFISTKIDKTDKYLRFRQFDPNPDSHHATKRTSQGITFILE — lower, -3.51
- HMEALDPLTAREQEVLEMILSGKSNREIAAELHITENTVKTHAQSIYSKYDVRGRAKLISLLLKGEA — within 0.2 log units, -0.102
- HMVRDPYELLEVPREATPDEIKSAFRKLAARHHPDRNPDDPGAQERFKEINAAYQLLSDPQKRAMFDRFGA — within 0.2 log units, 0.169
- HMQIVPVDYSTFMQSIDDKTVDHVEIQSNQILYTVKDDHKKYKTGIMNDPTLAQRLMESGATFTQD — within 0.2 log units, 0.0939
- HMKTAAKVLGESGGKPVTVQSGRYGPYVQLGTIRATLPKDLDQEAVTLDKALELIDAKAERSGK — within 0.2 log units, 0.172
- HMSHGFVHLKGAVQHPGIYPVKENTRWDEVVKAAGGLTAAADIQQVNLAKVASDQESLYVPEKGET — within 0.2 log units, 0.098
- HMVQIFIPVVHDDHWFLIVFSREEDTFYVLDSLPSLSRISTINGIISTLKEHLQQASVGPQYSVKVLPVK — lower, -0.172
- HMNVEALIGREGRVTDKIEANGYGRVKVDGDSWKAKSANGAEIRQNTDVRILSIDSVIITVEP — lower, -0.379
- HMDPASYEARLSTLREQGAQQLDPVRFQYLATLAQRLPTQTPGVALILANKLRAGLSDYEQRLSEAGS — within 0.2 log units, -0.0289
- HMGSEISLNAFNIPKGSVSVTAGGTKLVENQDYTVDYTLGRIKILNEGILNSGVPIQVNFENNTLFN — within 0.2 log units, 0.0829
- HMSKNDLAGDEADVYKLLSVETGKPISDLVNRLPFGKSKTREILNTLAEKGFVYISGSGRGTKYHR — within 0.2 log units, 0.0557
- HMIDTLEYIISEESKGLRADQAITMVNGEFSRSLIQKWIKKGSILVNGKKIKPRDILNLNDKVTINPEEN — within 0.2 log units, -0.0699
- HMTDIVPNLIGKSLKDAIQSVEKSNLKAIFDGHGIVVSQQPRPGSPIPARKIMKVTLSPDYR — within 0.2 log units, 0.011
- HMIRTGEVVTGKVINVKEDQIILNIGFKSDGIITRNEYTNDNSLDLRTVVHEGDEIEAKVLKVNDGEGQVV — higher, ≥ 0.62
- HMNEVRINTAHIEHKYLGEVKVLDIQEMRNARGRDADPLAFLAIRFWSPRGVLVRVKDSRDATPYWLIS — higher, 0.3
- HMDIEFSDELRTFIDEWSKKEGGLVMMLHRIQNEYGFIPRTAAEKLSLISGIPLARIYGVITFYHFFKT — lower, -0.461
- HMSQTPDLQQERANLGDNADARIEAVDLWANKFFPEEHADAILQIGQTAKGIEALEFIMSKV — within 0.2 log units, 0.0193
- HMRTGSSVLVGLVAPVRLGATGAPKVFADGALWEARSAVPLNDGQLVEITGTDGLTVLVKPSA — within 0.2 log units, 0.0494
- HMSTSAAELLRTARQQAGMSQSAVAELAKTSQSAIAMYEAGNREPSLPVLQRLLAATGHQLSLSVLP — lower, -0.228
- HMHMNFGEILQTKRKEKGFTQEELAHQLLVSSKTISNWETNKTTPDIDNVIRISQLFDISLNQLLLE — lower, -0.379
- HMAELVISVKADGTIHYQDRQLTKEALAAVLETRPEALLNLYVDEKAPFEAFVGVVDIARLKRGGHFVIST — lower, -0.632
- HMSDVLPEAILERRLVKKGNRAVPQVLIKWTKLPATSATWEDFYVLQQRFPTALAWGQAPSPGGQM — lower, -0.221
- HMTAEVIYVDVGGEVNQPSVVELTDGSRVTDAIAAAGGLTEKADLTDINRAAFVSDGEKIFIPSQEE — within 0.2 log units, -0.0513
- HMSPLTPEEAEVLRILGDHGDMTVDNIATEGKMSAAAVLRVLGVLSAYGLAVPSGPGRWGSRAA — lower, -0.24
- HMQDVVERIKKYKQLFSITSEELSKRSGIPLGTLNKILSSSTKSIKTETLAAIAKGLDVSVSDLVGREK — within 0.2 log units, 0.0602
- HMQMSDTGAIEAMVKEALDENPQAIEDFKNGKGKALGFLMGQVMKKSKGQANGGIVNKLIKEELQKRIG — within 0.2 log units, 0.181
- HMSNNILEISSNKKNMKIQENKNLVESYYSKTENLYSFKLVFKNKRDLDQFLKEVYEDDSTINYKTSS — lower, -0.412
- HMFMLQAKRVPVSELENFKGIVAEDVVSQSRALILPRGSNLSWLSSSAMQNLSTRLALEGVESISIYL — lower, -1.43
- HMAKDSQSADVLQAIFDGSKVLNGLALDQDMRWDLINGLVMSGRLGVEAIEAEAAKLAKLVEELEFR — lower, -0.892
- HMSEFGENLKKLRTARDLTQQELGAKVGLSKAVVSKYENGLGYPTFDVLIRIAAYFGVTTDYLLGV — lower, -0.442
- HMRKIKDVLRLKLHAGLSHERVAASLNISKGVVAKYTSLAAAAGLDWPTVERLSEAALERRLV — within 0.2 log units, -0.135
- HMNVKQALLELMQRKPELTGSAIARAIGYSPAVISQYLKDGYPGDVVKLTTLIGDFIRRIDEKERS — lower, -0.182
- HMSQLDITEARIVVSGGLGMQGPENFKLLEELAKVLGGAVGASRPVVDNGWREYSNQVGQTGKIVAPELYV — within 0.2 log units, -0.0903
- HMFSWRQHLDHFGFSDEIKKRLADAVFLNDDWNEIDRGVLTKEELLARFIENDPGIEKEIYMVMENIN — lower, -0.509
- HMFRSNAERAAHLASALPRAEAELAALQARGAATSENIYLRSSYFDALRYTEELRAAKRAQDALQGA — within 0.2 log units, 0.0735
- HMNGNLRAQVLELMGRADYEPLNKSELSRKLDLQGSDRSSLRILMDELERDHSVVRLKKGRFALKVV — lower, -0.853
- HMPKPMKATKITLQQEPRIRVDFTYDPLKVQQIKTISGARWSKSLKAWHIPYTKEAFNQLKKLFPNVEIEV — lower, -0.166
- HMTIRLKELRKQKGNTQAEVAKILGTNQSQYGKYENERTQLSLDNAKILSDYFGVSVPYLLGLDDNP — within 0.2 log units, -0.0854
- HMNEISFYPNPAKESLTVKGLSEITSYSISDINGKLIQYGTTFDRINLEKLTKGFYFLTIGNTISKKLIV — lower, -0.39
- HMDDFSETLLQYIKEKGGHISLNDKTDAGVIYETFGVSKKTFKKAVGDLYKKRLIVLEDTGIRL — within 0.2 log units, -0.0801
- HMKEPPTLEEIKNYFASKLSTELESEKFFNYFESNGWLVGGKTPMKNWQSAANNWLINMSKFN — lower, -0.47
- HMYEIEDIKEKLLDLLANSKTGFSGLEISNRLGINRITVSKYLNIFSAEGLIKQKNIGNVIIWFVEDGIE — lower, -0.203
- HMDHFFSKYDSIVNHTVQKKETLFGISKKYGLTINEVIKFNPGIQIDKLKRRSVLIIPLMKKN — lower, -0.917
- HMGVIDTLSGPQKAAAILVAIGRPSASRLLKHFNAEDLRKLAGHARTLEPISPLDFEHLVKQFEDSFAEG — lower, -0.798
- HMKGDYWIIDLDKNYQYAIISEPDRQYLWILSRSPNMDTQTLETLKEKIRSKGFDLTYLKQTL — lower, -0.844
- HMLDQSYYETANEIISRYPLEEKSLIPIIQDIQATYRYLPPDLLDYVAKKIGITETKAYSVASFYENFSF — lower, -0.327
- HMTVDHDERRSMILEAFMRLAAREGLHAVSLRGVAAEAGISLRLVQYYFETKARLMQSGLTALET — lower, -0.281
- HMKVSDPEAIKLIEQAQVKVIPFLDISEAADIQIALEELKNSEGTGQTDSAKVRLRNLLSPFSYL — higher, 0.269
- HMYHADLIGLRVETAAGEKLGTVKAVHNFGAGDVIEITGAEDKDGLMVPFTAEVVPEVDIENGRIVVS — lower, -0.331
- HMKALYHQLVDLLKKRMESGMIPHDKLPSERELTAQYGVSRTTVRLALQELENTGYIYRRHGKGTFVSDI — lower, -2.27
- HMADKHVAAALLKLMDHLVGGRQYAFMKGRLTINKKVVLEATEVSAYRRGTGLSDADWQQRYE — lower, -1.97
- HMIQIGEQIRYYRTKIGISQEALALMADINPAYIGQIERGIKSPTVNTIKKIANAMGINLHTLFT — lower, -2.91
- HMHKTEIKIPSREDILAVLRQAQAPLTREQVFEHLKLTEDQIPIIEKRLNAMERDGQLMPNRKGMLLLSTK — higher, 0.266
- HMENDYTQAQFVQDLDSGVVREVIIIPNREAPTGYARVVFGDVVRELYATDIREVEALAREHGYEPTVED — within 0.2 log units, 0.209
- HMTYLIKFDENGRRSDTYVAEEKTQEQVTELLEKGFVLITEEDYQLLVGNVDGKEYIRNADGTYSEYT — within 0.2 log units, -0.0279
